Assay results: US20230250170A1
Read-outs that look alike come from different tables or passages of the source.

How the values were obtained:
[1] = biological target: human NPR1 on HEK293/hNPR1 cells (human) (UniProt P16066)
[2] = biological target: human NPR1 on HEK293/hNPR1 cells (human) (UniProt P16066); remark: listed apart in the source
[3] = biological target: human NPR1 on HEK293/hNPR1 cells (human) (UniProt P16066); remark: listed apart in the source
[4] = biological target: human NPR1 on HEK293/hNPR1 cells (human) (UniProt P16066); remark: listed apart in the source

Sequence of human NPR1 on HEK293/hNPR1 cells (human) (P16066 33-1061): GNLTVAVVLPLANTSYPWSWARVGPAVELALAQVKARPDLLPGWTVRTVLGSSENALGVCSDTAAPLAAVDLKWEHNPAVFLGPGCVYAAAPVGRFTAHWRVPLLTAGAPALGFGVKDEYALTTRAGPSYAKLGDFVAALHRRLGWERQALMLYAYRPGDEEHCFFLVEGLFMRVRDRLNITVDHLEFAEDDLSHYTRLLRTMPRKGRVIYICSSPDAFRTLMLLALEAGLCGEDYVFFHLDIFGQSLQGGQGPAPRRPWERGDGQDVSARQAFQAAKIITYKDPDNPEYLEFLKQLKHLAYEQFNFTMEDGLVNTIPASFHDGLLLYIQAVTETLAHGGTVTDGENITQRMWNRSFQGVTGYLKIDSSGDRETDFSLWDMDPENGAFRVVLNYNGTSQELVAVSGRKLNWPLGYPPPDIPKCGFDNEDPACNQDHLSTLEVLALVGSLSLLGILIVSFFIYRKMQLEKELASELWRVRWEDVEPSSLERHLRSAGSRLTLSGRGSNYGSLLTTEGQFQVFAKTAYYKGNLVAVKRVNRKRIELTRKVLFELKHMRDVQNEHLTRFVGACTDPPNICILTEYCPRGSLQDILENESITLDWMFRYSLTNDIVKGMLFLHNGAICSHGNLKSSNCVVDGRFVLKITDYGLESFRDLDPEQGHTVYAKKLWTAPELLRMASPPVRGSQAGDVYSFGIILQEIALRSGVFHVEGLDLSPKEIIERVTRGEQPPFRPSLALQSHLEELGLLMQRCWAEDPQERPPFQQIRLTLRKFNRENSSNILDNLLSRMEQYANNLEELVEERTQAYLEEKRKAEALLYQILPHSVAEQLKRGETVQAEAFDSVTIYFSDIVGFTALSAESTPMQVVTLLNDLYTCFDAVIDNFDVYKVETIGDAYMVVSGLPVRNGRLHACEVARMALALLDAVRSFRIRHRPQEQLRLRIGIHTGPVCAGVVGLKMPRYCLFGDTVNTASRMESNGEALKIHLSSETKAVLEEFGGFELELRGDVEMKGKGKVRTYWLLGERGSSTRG

- EC50 (read off the curve); cGMP accumulation, HEK293/hNPR1 cells, ANP after pre-treatment with 50 nM H4H22034N [1]: 0.6 nM
- EC50 (read off the curve); cGMP accumulation, HEK293/hNPR1 cells, ANP after pre-treatment with 150 nM H4H22034N [1]: 0.6 nM
- EC50 (read off the curve); cGMP accumulation, HEK293/hNPR1 cells, ANP after pre-treatment with 450 nM H4H22034N [1]: 0.6 nM
- EC50 (read off the curve); cGMP accumulation, HEK293/hNPR1 cells, ANP after pre-treatment with 50 nM REGN7541 [2]: 0.2 nM
- EC50 (read off the curve); cGMP accumulation, HEK293/hNPR1 cells, ANP after pre-treatment with 150 nM REGN7541 [2]: 0.8 nM
- EC50 (read off the curve); cGMP accumulation, HEK293/hNPR1 cells, ANP alone (dilution buffer) [2]: 0.07 nM
- EC50 (read off the curve); cGMP accumulation, HEK293/hNPR1 cells, ANP after pre-treatment with 50 nM REGN7544 [3]: 0.3 nM
- EC50 (read off the curve); cGMP accumulation, HEK293/hNPR1 cells, ANP after pre-treatment with 150 nM REGN7544 [3]: 0.8 nM
- EC50 (read off the curve); cGMP accumulation, HEK293/hNPR1 cells, ANP after pre-treatment with 450 nM REGN7544 [3]: 40 nM
- EC50 (read off the curve); cGMP accumulation, HEK293/hNPR1 cells, ANP alone (dilution buffer) [3]: 0.1 nM
- EC50 (read off the curve); cGMP accumulation, HEK293/hNPR1 cells, ANP after pre-treatment with 50 nM REGN7548 [4]: 0.7 nM
- EC50 (read off the curve); cGMP accumulation, HEK293/hNPR1 cells, ANP alone (dilution buffer) [4]: 0.09 nM
Binder: SLRRSSCFGGRMDRIGAQSGLGCNSFRY (ligand, UniProt P01160 124-151, looked up) [atrial natriuretic peptide (ANP)]
